Among the data in PMC5192385 are stoichiometry N values, retold here.

The target of this test is depolymerase enzyme encoded by Klebsiella phage KP36 (depoKP36) (Klebsiella phage KP36). The experiment in a line: SEC-MALS; 2 mg of purified, non-aggregated protein on an S200 10/30 column in 200 mM NaCl, 25 mM HEPES, 5% glycerol, pH 7.8; flow 0.5 mL/min. A general note: Size exclusion chromatography separates by hydrodynamic size, large species first.

Chain of depolymerase enzyme encoded by Klebsiella phage KP36 (depoKP36) (K9L8K6 whole entry): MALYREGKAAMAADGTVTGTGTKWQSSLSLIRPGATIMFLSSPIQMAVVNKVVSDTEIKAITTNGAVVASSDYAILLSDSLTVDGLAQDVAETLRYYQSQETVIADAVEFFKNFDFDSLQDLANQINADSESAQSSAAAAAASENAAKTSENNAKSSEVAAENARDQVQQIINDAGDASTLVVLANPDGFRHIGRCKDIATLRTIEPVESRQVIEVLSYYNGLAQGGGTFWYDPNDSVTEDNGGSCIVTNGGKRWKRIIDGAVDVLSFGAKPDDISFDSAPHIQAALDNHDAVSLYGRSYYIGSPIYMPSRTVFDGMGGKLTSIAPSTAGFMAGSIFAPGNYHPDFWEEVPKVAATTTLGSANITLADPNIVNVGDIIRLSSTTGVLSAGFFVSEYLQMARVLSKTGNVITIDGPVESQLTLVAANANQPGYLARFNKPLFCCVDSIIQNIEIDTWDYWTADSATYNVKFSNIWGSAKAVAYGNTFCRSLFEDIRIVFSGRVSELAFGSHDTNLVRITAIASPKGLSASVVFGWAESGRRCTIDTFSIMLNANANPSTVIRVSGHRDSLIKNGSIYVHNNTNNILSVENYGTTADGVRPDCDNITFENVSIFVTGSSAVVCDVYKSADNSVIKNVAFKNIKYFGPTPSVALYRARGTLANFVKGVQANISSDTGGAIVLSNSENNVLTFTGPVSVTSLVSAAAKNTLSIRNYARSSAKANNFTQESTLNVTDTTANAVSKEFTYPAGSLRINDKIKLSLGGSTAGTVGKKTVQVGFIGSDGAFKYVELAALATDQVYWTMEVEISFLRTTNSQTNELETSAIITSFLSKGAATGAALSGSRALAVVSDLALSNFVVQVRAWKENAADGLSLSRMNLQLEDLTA

Turning to “depolymerase enzyme encoded by Klebsiella phage KP36 (depoKP36)”, the stoichiometry N is 3.

A word on the stoichiometry N: it is the number of molecules, sites or subunits per partner or assembly.
